Assay results from patent publication US7064106B2, “Gene and use thereof” (Takeda Chemical Industries, Ltd., priority 1999, dated 2006).

Tests used:
IRAP-His = biological target: T1, IRAP-His (Rattus norvegicus, UniProt P97629); experiment: Biochemical binding test of human MD36 (EIA plate, anti-Penta-His detection); settings: IRAP-His 1.0 μg/ml and anti-Penta-His antibody both added to human MD36-coated wells
T1 construct: to construct plasmid pET21-IRAP (1–109); made in house
T1 sequence (P97629 1-109): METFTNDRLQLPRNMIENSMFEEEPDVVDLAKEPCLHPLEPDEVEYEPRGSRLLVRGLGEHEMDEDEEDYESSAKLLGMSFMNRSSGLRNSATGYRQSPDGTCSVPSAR
Text: The C terminal part (partial peptide encoded by the partial base sequence of 2995–3674 from the 5′ end in SEQ ID NO:2) of SEQ ID NO:1 (full-length cDNA of MD36) was used as human MD36. This DNA fragment was inserted into pGEX expression vector (Amersham Pharmacia) to construct expression plasmid pGEX-MD36N4 capable of expressing the human MD36 partial protein in the form fused to GST (glutathione S-transferase) protein (GST-MD36N4 protein) under control of tac promoter. However, the protease recognition site in these junctions was removed by applying PCR. Using pGEX-MD36N4, E. coli BL21 was transformed and the transformants were cultured in LB medium in a conventional manner while inducing expression by IPTG. After culture, the cells collected were disrupted by sonication followed by centrifugation of the cell homogenate. As a result, most of the GST-MD36N4 protein were present in the insoluble fraction. […]
Protein-protein binding test was carried out by the procedure shown below. […] After the wells were again rinsed 3 times with TBS-T, the IRAP-His protein remained in the wells was quantitatively assayed using anti-Penta-His antibody (Qiagen, Inc.). […] IRAP-His (1.0 μg/ml) or anti-Penta-His antibody (diluted to 2000 fold) and both were added to the GST-MD364N-coated or uncoated wells, and after washing with TBS-T, the amount of His-Tag remained in the wells was quantified. […]

IRAP (55–82) = biological target: T2, IRAP (55–82) (Rattus norvegicus, UniProt P97629); experiment: Yeast two-hybrid quantification assay of β-galactosidase activity (CPRG); type: cell-based; settings: bait IRAP (55–82); prey MD36 cDNA base numbers 2995–3674; S. cerevisiae Y190; CPRG substrate
T2 construct: expressed in transfected cells; host or cells: Saccharomyces cerevisiae Y190
T2 sequence (P97629 55-82 limits assumed): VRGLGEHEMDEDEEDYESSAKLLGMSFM
Experimental: In order to verify the binding of human MD36 to IRAP quantitatively, the β-galactosidase activity was assayed using CPRG (chlorophenol red-β-D-galactopyranoside) as substrate.
Yeast bearing both bait and prey sought to detect the interactions therebetween was subjected to liquid culture. After the cells were recovered, the cell walls were disrupted by freezing/thawing with liquid nitrogen. After CRPG was added to a suspension of the disrupted cells, absorbance of these samples at 578 nm was measured in terms of the β-galactosidase activity. In the unit of β-galactosidase, the enzyme activity that one yeast cell is capable of hydrolyzing 1 μmol of CPRG into chlorophenol red and D-galactoside was made 1 unit. IRAP (55–82) was used as the bait sequence and as the prey sequence, the sequence (679 bp corresponding to the base numbers 2995–3674 in SEQ ID NO:3) directly isolated from human MD36 cDNA sequence by the yeast two-hybrid method was used. In addition, vector pGBT9 that expresses bait sequence-unfused GAL4-BD was used as a negative control. Using plasmids having these sequences, S. Cerevisiae Y190 was transformed and the β-galactosidase activity of the reconstructed yeast transformants was assayed. […] On the other hand, the binding activity was scarcely noted with the protein bearing GAL4-BD alone but no bait sequence (FIG. 19). […]

B1: MD36: human skeletal muscle-derived IRAP binding protein, SEQ ID NO:1; C-terminal part (bases 2995–3674) used in binding tests (protein, listed as Homo sapiens)
chain: MAGGEDRGDGEPVSVVTVRVQYLEDTDPFACANFPEPRRAPTCSLDGALPLGAQIPAVHRLLGAPLKLEDCALQVSPSGYYLDTELSLEEQREMLEGFYEEISKGRKPTLILRTQLSVRVNAILEKLYSSSGPELRRSLFSLKQIFQEDKDLVPEFVHSEGLSCLIRVGAAADHNYQSYILRALGQLMLFVDGMLGVVAHSDTIQWLYTLCASLSRLVVKTALKLLLVFVEYSENNAPLFIRAVNSVASTTGAPPWANLVSILEEKNGADPELLVYTVTLINKTLAALPDQDSFYDVTDALEQQGMEALVQRHLGTAGTDVDLRTQLVLYENALKLEDGDIEEAPGAGGRRERRKPSSEEGKRSRRSLEGGGCPARAPEPGPTGPASPVGPTSSTGPALLTGPASSPVGPPSGLQASVNLFPTISVAPSADTSSERSIYKLHQTASVWAPESPPVPQSPPGQARLEARFLENVAAAETEKQVALAQGRAETLAGAMPNEAGGHPDARQLWDSPETAPAARTPQSPAPCVLLRAQRSLAPEPKEPLIPASPKAEPIWELPTRAPRLSIGDLDFSDLGEDEDQDMLNVESVEAGKDIPAPSPPLPLLSGVPPPPPLPPPPPIKGPFPPPPPLPLAAPLPHSVPDSSALPTKRKTVKLFWRELKLAGGHGVSASRFGPCATLWASLDPVSVDTARLEHLFESRAKEVLPSKKAGEGRRTMTTVLDPKRSNAINIGLTTLPPVHVIKAALLNFDEFAVSKDGIEKLLTMMPTEEERQKIEEAQLANPDIPLGPAENFLMTLASIGGLAARLQLWAFKLDYDSMEREIAEPLFDLKVGMEQLVQNATFRCILATLLAVGNFLNGSQSSGFELSYLEKVSEVKDTVRRQSLLHHLCSLVLQTRPESSDLYSEIPALTRCAKVDFEQLTENLGQLERRSRAAEESLRSLAKHELAPALRARLTHFLDQCARRVAMLRIVHRRVCNRFHAFLLYLGYTPQAAREVRIMQFCHTLREFALEYRTCRERVLQQQQKQATYRERNKTRGRMITETEKFSGVAGEAPSNPSVPVAVSSGPGRGDADSHASMKSLLTSRPEDTTHNRRSRGMVQSSSPIMPTVGPSTASPEEPPGSSLPSDTSDEIMDLLVQSVTKSSPRALAARERKRSRGNRKSLRRTLKSGLGDDLVQALGLSKGPGLEV
amount of His-Tag remained in the wells (IRAP-His): markedly detected | β-galactosidase activity (IRAP (55–82)): about 70 units
